Results on two molecules are retold here after patent US20100167390, “Novel Oligonucleotide and NF-kB Decoy Comprising the Same” (published 2010).

Series [1] deals with T1, NF-kB p65 (RelA) (UniProt Q04206 Q04206:1-551). The experiment in a line: competition; primary screen 1.33. As to conditions: protein: extract; tags: TPA and CI-stimulated Jurkat nuclear extract, Active Motif TransAM kit. On the procedure: (§1) The measurement was performed in accordance with the instructions attached to the kit. The kit was made for quantifying the NF-κB bound to the solid phase by ELISA after adding an NF-κB solution to the wells in which the NF-κB (p65 protein) consensus binding sequence was immobilized and after washing the resultant. By this measurement method, the higher the binding capacity of the oligonucleotide to the NF-κB, the smaller amount of the NF-κB quantified by the ELISA.
T1 sequence (Q04206 whole entry, one chain of several): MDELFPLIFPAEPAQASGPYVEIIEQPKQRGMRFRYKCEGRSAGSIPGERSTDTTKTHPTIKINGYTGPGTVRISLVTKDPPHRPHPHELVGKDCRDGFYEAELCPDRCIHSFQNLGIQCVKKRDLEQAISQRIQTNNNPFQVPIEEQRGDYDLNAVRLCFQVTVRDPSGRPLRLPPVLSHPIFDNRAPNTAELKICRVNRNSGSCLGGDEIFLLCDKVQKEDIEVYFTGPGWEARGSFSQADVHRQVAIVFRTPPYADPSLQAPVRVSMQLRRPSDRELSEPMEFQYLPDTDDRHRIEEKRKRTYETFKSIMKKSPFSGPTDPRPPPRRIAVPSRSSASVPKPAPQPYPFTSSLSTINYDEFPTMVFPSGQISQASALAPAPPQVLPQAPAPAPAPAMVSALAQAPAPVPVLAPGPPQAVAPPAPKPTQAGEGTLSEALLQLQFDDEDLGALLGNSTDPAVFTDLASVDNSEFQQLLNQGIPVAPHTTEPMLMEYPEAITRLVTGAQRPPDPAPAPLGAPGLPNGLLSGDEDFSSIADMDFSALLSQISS
(§2) More concretely, the above-described measurement was carried out as follows concretely: Each SODN solution was serially diluted with Complete Binding Buffer contained in the kit to prepare test samples (common ratio: 3-fold, 4 times, n=3). […] After allowing coloration for 10 minutes, the Stop Solution was added to stop the reaction, and the absorbances at 450 nm and 630 nm were measured.
(§3) The absorbance at 630 nm was subtracted from the absorbance at 450 nm and the mean value of the blanks was further subtracted from the resultant, and the percentage of the mean value of each concentration based on the mean value of the controls was calculated. The concentration at which the calculated value was 50% (i.e., at which the binding was inhibited by 50%) was calculated from the regression lines between two points interposing 50% (an analysis software Graph Pad PRISM 4, GraphPad SOFTWARE was used). […]

The target in series [2] is T1, NF-kB p65 (RelA). The experiment in a line: competition; primary screen 2.10. As to conditions: protein: extract; tags: TPA and CI-stimulated Jurkat nuclear extract, Active Motif TransAM kit. Here is the method: as §1, §2, §3

B1: SODN30 (dsDNA)
DNA 1: GGCTGGGATTTCCCGCGG
DNA 2: CCGCGGGAAATCCCAGCC
modifications: PS all bonds, both strands
In series [1], B1 displayed a 50% inhibitory concentration (IC50) of 1.87 nM.

B2: SODN36 (dsDNA)
DNA 1: CTCGGGATTTCCCAGCTCG
DNA 2: CGAGCTGGGAAATCCCGAG
modifications: PS all bonds, both strands
Turning to B2, the IC50 in series [2] came to 2.61 nM.

By IC50 is commonly meant the concentration at which inhibition is half-maximal.
